Test system: peptide library, one residue held at a place counted from the S/T acceptor
Assay: relative phosphorylation of the sub-library (ratio to the mean residue at this position); human; higher = residue favoured
Conditions: P fixed; at -4
Procedure, shortened: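 Spots on streptavidin membranes were phosphorimaged and quantified by densitometry to measure phosphorylation of biotinylated degenerate peptide sub-libraries by purified recombinant kinases, human or orthologue constructs. The reactions ran in 384-well plates for 90 min under kinase-specific conditions, with peptides at 50 μM and 50 μM ATP spiked with γ-32P-ATP. Relative sub-library phosphorylation is the ratio to the mean residue at that position.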

Chain of CSNK1G3, construct: Full length (Q9Y6M4 whole entry, looked up): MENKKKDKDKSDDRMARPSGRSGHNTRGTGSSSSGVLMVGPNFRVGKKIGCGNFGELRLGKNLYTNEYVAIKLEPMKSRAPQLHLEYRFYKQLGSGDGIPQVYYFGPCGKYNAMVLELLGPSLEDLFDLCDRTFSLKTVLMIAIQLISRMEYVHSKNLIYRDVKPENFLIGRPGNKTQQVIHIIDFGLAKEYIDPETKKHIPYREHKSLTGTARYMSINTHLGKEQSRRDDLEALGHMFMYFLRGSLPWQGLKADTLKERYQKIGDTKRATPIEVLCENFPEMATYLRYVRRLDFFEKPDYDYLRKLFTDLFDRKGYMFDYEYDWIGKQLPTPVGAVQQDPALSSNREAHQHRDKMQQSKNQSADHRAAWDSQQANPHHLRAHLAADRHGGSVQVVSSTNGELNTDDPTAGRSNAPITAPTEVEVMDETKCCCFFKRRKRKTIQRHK
Chain of CDKL1, construct: aa2-304 (Q00532 2-304, looked up): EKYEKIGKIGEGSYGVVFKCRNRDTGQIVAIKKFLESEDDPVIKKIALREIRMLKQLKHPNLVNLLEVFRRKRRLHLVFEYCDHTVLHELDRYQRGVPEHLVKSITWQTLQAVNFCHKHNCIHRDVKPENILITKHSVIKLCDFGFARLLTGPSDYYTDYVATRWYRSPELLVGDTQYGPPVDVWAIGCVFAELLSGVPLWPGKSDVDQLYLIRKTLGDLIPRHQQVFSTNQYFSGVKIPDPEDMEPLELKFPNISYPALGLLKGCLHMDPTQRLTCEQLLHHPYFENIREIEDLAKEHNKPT
Chain of ACVR1B, construct: aa150-end (P36896 150-505, looked up): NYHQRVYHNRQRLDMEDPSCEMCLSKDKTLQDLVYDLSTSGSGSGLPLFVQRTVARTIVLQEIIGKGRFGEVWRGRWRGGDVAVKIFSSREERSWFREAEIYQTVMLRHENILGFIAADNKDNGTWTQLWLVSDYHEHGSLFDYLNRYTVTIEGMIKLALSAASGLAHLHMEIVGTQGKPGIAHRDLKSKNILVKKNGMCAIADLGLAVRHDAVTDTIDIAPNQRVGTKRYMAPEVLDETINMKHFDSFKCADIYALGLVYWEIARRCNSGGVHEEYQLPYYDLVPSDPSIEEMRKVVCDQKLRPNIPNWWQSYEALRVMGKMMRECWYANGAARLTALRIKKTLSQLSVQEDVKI
Chain of CSNK1A1L, construct: Full length (Q8N752 whole entry, looked up): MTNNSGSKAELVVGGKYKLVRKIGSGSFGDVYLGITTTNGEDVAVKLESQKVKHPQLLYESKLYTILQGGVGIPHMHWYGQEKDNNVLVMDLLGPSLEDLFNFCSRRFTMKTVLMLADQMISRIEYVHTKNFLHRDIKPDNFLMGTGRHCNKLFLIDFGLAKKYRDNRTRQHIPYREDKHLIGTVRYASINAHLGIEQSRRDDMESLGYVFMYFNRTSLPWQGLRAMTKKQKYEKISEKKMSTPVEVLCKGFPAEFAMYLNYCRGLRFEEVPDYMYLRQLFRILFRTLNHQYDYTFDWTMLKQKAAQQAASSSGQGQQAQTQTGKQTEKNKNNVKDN
Chain of CAMK2D, construct: Full length (Q13557 whole entry, looked up, the tested form may be a part): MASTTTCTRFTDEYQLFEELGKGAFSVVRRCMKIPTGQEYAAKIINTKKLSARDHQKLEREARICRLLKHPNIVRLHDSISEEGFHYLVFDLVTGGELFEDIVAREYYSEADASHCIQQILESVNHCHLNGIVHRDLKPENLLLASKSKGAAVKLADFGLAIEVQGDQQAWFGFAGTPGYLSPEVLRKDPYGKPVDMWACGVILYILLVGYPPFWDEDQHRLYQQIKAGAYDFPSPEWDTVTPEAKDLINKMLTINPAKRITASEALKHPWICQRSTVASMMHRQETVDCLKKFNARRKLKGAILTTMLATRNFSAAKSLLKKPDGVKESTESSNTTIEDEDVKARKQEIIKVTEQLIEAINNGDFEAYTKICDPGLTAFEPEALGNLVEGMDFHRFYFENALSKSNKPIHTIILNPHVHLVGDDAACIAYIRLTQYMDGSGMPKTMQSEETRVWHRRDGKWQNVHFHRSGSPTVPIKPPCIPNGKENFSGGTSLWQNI
Chain of TSSK1B, construct: Full length (Q9BXA7 whole entry, looked up): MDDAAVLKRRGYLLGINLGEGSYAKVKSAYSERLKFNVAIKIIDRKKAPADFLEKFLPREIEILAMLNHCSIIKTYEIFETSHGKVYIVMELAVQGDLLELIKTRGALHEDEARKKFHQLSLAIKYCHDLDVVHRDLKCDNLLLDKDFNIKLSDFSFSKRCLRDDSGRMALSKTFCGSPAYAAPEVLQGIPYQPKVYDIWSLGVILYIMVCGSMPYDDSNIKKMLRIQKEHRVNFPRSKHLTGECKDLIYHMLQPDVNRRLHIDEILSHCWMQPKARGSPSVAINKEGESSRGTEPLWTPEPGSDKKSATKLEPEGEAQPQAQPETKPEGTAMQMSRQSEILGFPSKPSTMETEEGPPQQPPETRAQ
Chain of PAK1, construct: aa150-end (Q13153 150-545, looked up): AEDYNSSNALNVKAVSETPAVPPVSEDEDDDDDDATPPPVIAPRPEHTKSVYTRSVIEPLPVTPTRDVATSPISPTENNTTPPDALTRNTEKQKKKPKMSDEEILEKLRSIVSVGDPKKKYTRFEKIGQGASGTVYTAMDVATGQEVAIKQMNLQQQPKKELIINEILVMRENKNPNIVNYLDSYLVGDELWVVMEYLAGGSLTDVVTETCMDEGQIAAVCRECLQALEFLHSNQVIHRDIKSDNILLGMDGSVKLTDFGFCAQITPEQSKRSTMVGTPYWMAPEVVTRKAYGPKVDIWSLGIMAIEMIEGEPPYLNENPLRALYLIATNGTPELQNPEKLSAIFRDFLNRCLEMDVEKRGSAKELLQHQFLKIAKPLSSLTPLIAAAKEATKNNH
Chain of CIT, construct: aa1-449 (O14578 1-449, looked up): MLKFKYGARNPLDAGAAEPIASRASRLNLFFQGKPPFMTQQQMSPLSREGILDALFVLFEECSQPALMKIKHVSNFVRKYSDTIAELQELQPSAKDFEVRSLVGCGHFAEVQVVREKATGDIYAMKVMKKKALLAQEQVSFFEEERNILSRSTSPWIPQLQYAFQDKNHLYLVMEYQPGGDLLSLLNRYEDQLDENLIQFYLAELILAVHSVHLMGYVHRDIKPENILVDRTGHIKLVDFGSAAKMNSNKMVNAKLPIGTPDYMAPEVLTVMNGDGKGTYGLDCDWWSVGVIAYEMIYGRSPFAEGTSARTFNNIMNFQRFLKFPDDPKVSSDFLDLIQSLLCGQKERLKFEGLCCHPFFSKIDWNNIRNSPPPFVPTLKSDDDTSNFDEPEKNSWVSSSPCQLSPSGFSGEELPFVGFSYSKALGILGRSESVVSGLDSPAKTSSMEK

For “CSNK1G3, construct: Full length (from UniProt Q9Y6M4)”, the relative phosphorylation was 0.897.

Same assay, conditions: P fixed; at -5

Going from “CIT, construct: aa1-449 (from UniProt O14578)” to “PAK1, construct: aa150-end (from UniProt Q13153)”, the relative phosphorylation rises from 0.631 to 1.16.

Compared with “CAMK2D, construct: Full length (from UniProt Q13557)”, “CDKL1, construct: aa2-304 (from UniProt Q00532)” is lower in relative phosphorylation: 1.12 for the first, 0.918 for the second.

Compared with “ACVR1B, construct: aa150-end (from UniProt P36896)”, “TSSK1B, construct: Full length (from UniProt Q9BXA7)” is higher in relative phosphorylation: 0.939 for the first, 1.26 for the second.

First: CSNK1A1L, construct: Full length (from UniProt Q8N752)
Second: CSNK1G3, construct: Full length (from UniProt Q9Y6M4)
The relative phosphorylation of the first is higher: 0.874 for the first, 0.658 for the second.

Same assay, conditions: Q fixed; at +1

Compared with “CIT, construct: aa1-449 (from UniProt O14578)”, “PAK1, construct: aa150-end (from UniProt Q13153)” is higher in relative phosphorylation: 1.15 for the first, 1.3 for the second.

First: CAMK2D, construct: Full length (from UniProt Q13557)
Second: CDKL1, construct: aa2-304 (from UniProt Q00532)
The relative phosphorylation of the first is higher: 1.17 for the first, 0.894 for the second.

Compared with “ACVR1B, construct: aa150-end (from UniProt P36896)”, “TSSK1B, construct: Full length (from UniProt Q9BXA7)” is higher in relative phosphorylation: 0.944 for the first, 1.38 for the second.

First: CSNK1A1L, construct: Full length (from UniProt Q8N752)
Second: CSNK1G3, construct: Full length (from UniProt Q9Y6M4)
The relative phosphorylation of the first is lower: 0.801 for the first, 0.843 for the second.

Same assay, conditions: Q fixed; at +2

First: CIT, construct: aa1-449 (from UniProt O14578)
Second: PAK1, construct: aa150-end (from UniProt Q13153)
The relative phosphorylation of the first is lower: 0.762 for the first, 0.766 for the second.

Going from “CAMK2D, construct: Full length (from UniProt Q13557)” to “CDKL1, construct: aa2-304 (from UniProt Q00532)”, the relative phosphorylation rises from 0.957 to 1.03.

Going from “ACVR1B, construct: aa150-end (from UniProt P36896)” to “TSSK1B, construct: Full length (from UniProt Q9BXA7)”, the relative phosphorylation rises from 0.952 to 0.997.

Compared with “CSNK1A1L, construct: Full length (from UniProt Q8N752)”, “CSNK1G3, construct: Full length (from UniProt Q9Y6M4)” is higher in relative phosphorylation: 0.731 for the first, 0.864 for the second.

Same assay, conditions: Q fixed; at +3

Compared with “CIT, construct: aa1-449 (from UniProt O14578)”, “PAK1, construct: aa150-end (from UniProt Q13153)” is lower in relative phosphorylation: 0.931 for the first, 0.897 for the second.

Going from “CAMK2D, construct: Full length (from UniProt Q13557)” to “CDKL1, construct: aa2-304 (from UniProt Q00532)”, the relative phosphorylation rises from 1.03 to 1.05.

Going from “ACVR1B, construct: aa150-end (from UniProt P36896)” to “TSSK1B, construct: Full length (from UniProt Q9BXA7)”, the relative phosphorylation rises from 0.909 to 1.07.

Compared with “CSNK1A1L, construct: Full length (from UniProt Q8N752)”, “CSNK1G3, construct: Full length (from UniProt Q9Y6M4)” is higher in relative phosphorylation: 0.808 for the first, 0.869 for the second.

Same assay, conditions: Q fixed; at +4

First: CIT, construct: aa1-449 (from UniProt O14578)
Second: PAK1, construct: aa150-end (from UniProt Q13153)
The relative phosphorylation of the first is lower: 1.04 for the first, 1.2 for the second.

Going from “CAMK2D, construct: Full length (from UniProt Q13557)” to “CDKL1, construct: aa2-304 (from UniProt Q00532)”, the relative phosphorylation rises from 1 to 1.07.

Compared with “ACVR1B, construct: aa150-end (from UniProt P36896)”, “TSSK1B, construct: Full length (from UniProt Q9BXA7)” is lower in relative phosphorylation: 1.01 for the first, 0.683 for the second.

First: CSNK1A1L, construct: Full length (from UniProt Q8N752)
Second: CSNK1G3, construct: Full length (from UniProt Q9Y6M4)
The relative phosphorylation of the first is higher: 0.913 for the first, 0.879 for the second.

Same assay, conditions: Q fixed; at -1

Compared with “CIT, construct: aa1-449 (from UniProt O14578)”, “PAK1, construct: aa150-end (from UniProt Q13153)” is higher in relative phosphorylation: 0.969 for the first, 1.11 for the second.

Compared with “CAMK2D, construct: Full length (from UniProt Q13557)”, “CDKL1, construct: aa2-304 (from UniProt Q00532)” is lower in relative phosphorylation: 1.16 for the first, 1.05 for the second.

First: ACVR1B, construct: aa150-end (from UniProt P36896)
Second: TSSK1B, construct: Full length (from UniProt Q9BXA7)
The relative phosphorylation of the first is lower: 1.03 for the first, 1.17 for the second.

Compared with “CSNK1A1L, construct: Full length (from UniProt Q8N752)”, “CSNK1G3, construct: Full length (from UniProt Q9Y6M4)” is higher in relative phosphorylation: 0.878 for the first, 1.1 for the second.

Same assay, conditions: Q fixed; at -2

First: CIT, construct: aa1-449 (from UniProt O14578)
Second: PAK1, construct: aa150-end (from UniProt Q13153)
The relative phosphorylation of the first is higher: 1.03 for the first, 0.673 for the second.

Going from “CAMK2D, construct: Full length (from UniProt Q13557)” to “CDKL1, construct: aa2-304 (from UniProt Q00532)”, the relative phosphorylation falls from 2.51 to 0.856.

Compared with “ACVR1B, construct: aa150-end (from UniProt P36896)”, “TSSK1B, construct: Full length (from UniProt Q9BXA7)” is higher in relative phosphorylation: 0.72 for the first, 1.29 for the second.

Compared with “CSNK1A1L, construct: Full length (from UniProt Q8N752)”, “CSNK1G3, construct: Full length (from UniProt Q9Y6M4)” is higher in relative phosphorylation: 0.889 for the first, 1.26 for the second.

Same assay, conditions: Q fixed; at -3

Compared with “CIT, construct: aa1-449 (from UniProt O14578)”, “PAK1, construct: aa150-end (from UniProt Q13153)” is higher in relative phosphorylation: 0.7 for the first, 0.952 for the second.

First: CAMK2D, construct: Full length (from UniProt Q13557)
Second: CDKL1, construct: aa2-304 (from UniProt Q00532)
The relative phosphorylation of the first is higher: 0.973 for the first, 0.707 for the second.

Compared with “ACVR1B, construct: aa150-end (from UniProt P36896)”, “TSSK1B, construct: Full length (from UniProt Q9BXA7)” is lower in relative phosphorylation: 0.956 for the first, 0.858 for the second.

First: CSNK1A1L, construct: Full length (from UniProt Q8N752)
Second: CSNK1G3, construct: Full length (from UniProt Q9Y6M4)
The relative phosphorylation of the first is higher: 0.685 for the first, 0.528 for the second.

Same assay, conditions: Q fixed; at -4

First: CIT, construct: aa1-449 (from UniProt O14578)
Second: PAK1, construct: aa150-end (from UniProt Q13153)
The relative phosphorylation of the first is lower: 0.924 for the first, 1.08 for the second.

Going from “CAMK2D, construct: Full length (from UniProt Q13557)” to “CDKL1, construct: aa2-304 (from UniProt Q00532)”, the relative phosphorylation rises from 0.875 to 1.08.

Compared with “ACVR1B, construct: aa150-end (from UniProt P36896)”, “TSSK1B, construct: Full length (from UniProt Q9BXA7)” is higher in relative phosphorylation: 0.768 for the first, 0.864 for the second.

First: CSNK1A1L, construct: Full length (from UniProt Q8N752)
Second: CSNK1G3, construct: Full length (from UniProt Q9Y6M4)
The relative phosphorylation of the first is higher: 0.865 for the first, 0.788 for the second.

Same assay, conditions: Q fixed; at -5

Going from “CIT, construct: aa1-449 (from UniProt O14578)” to “PAK1, construct: aa150-end (from UniProt Q13153)”, the relative phosphorylation rises from 0.72 to 0.964.

Compared with “CAMK2D, construct: Full length (from UniProt Q13557)”, “CDKL1, construct: aa2-304 (from UniProt Q00532)” is higher in relative phosphorylation: 0.708 for the first, 0.972 for the second.

Compared with “ACVR1B, construct: aa150-end (from UniProt P36896)”, “TSSK1B, construct: Full length (from UniProt Q9BXA7)” is lower in relative phosphorylation: 0.809 for the first, 0.783 for the second.

Going from “CSNK1A1L, construct: Full length (from UniProt Q8N752)” to “CSNK1G3, construct: Full length (from UniProt Q9Y6M4)”, the relative phosphorylation falls from 0.807 to 0.79.

Same assay, conditions: R fixed; at +1

First: CIT, construct: aa1-449 (from UniProt O14578)
Second: PAK1, construct: aa150-end (from UniProt Q13153)
The relative phosphorylation of the first is lower: 1.05 for the first, 1.46 for the second.

Compared with “CAMK2D, construct: Full length (from UniProt Q13557)”, “CDKL1, construct: aa2-304 (from UniProt Q00532)” is higher in relative phosphorylation: 0.5 for the first, 1.33 for the second.

From the supplement of paper PMC9876800
